Results on 32 molecules are retold here after US20220056104A1 (Janssen / Centocor, published 2022).

To fix the notation:
T1: Recombinant DR3-Fc (R&D Systems, cat. #943-D3) (UniProt Q93038 25-199, limits assumed)
T1 construct: dimeric MW~92 kDa; also called DR3 receptor; Fc-DR3; not shown: Fc part of the bought fusion
T1 sequence (looked up): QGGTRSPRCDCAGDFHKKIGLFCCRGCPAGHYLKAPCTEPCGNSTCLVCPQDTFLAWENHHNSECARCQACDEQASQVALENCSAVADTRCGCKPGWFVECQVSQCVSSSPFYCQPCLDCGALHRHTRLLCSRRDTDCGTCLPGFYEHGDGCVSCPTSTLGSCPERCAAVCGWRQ

T2: DcR3 (UniProt O95407 30-300, limits assumed)
T2 construct: the construct is not described; also called decoy receptor DcR3; TNFRSF6B
T2 sequence (looked up): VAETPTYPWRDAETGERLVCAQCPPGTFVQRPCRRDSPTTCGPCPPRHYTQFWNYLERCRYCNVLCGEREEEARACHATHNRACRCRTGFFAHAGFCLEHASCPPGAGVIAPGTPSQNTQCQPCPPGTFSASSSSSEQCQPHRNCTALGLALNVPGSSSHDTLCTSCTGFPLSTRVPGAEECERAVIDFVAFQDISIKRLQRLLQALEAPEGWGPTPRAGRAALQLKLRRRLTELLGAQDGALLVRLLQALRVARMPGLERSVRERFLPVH

B1: TL1W24 (His-TEV-hTL1A 72-251 F209A) (ligand)
chain: HHHHHHENLYFQGLKGQEFAPSHQQVYAPLRADGDKPRAHLTVVRQTPTQHFKNQFPALHWEHELGLAFTKNRMNYTNKFLLIPESGDYFIYSQVTFRGMTSECSEIRQAGRPNKPDSITVVITKVTDSYPEPTQLLMGTKSVCEVGSNWAQPIYLGAMFSLQEGDKLMVNVSDISLVDYTKEDKTFFGAFLL
notes: also called TL1W24 (F209A)
B2: TL1W29 (His-TEV-hTL1A 72-251 P189A) (ligand)
chain: B1 chain with P131A, A151F
notes: also called TL1W29 (P189A)
B3: TL1W31 (GD: Single chain MMB in CBIS; His-TEV-hTL1A 72-251 R103Q) (ligand)
chain: B1 chain with R45Q, A151F
notes: also called TL1W31 (R103Q)
B4: TL1W25 (His-TEV-hTL1A 72-251 N207A) (ligand)
chain: B1 chain with N149A, A151F
notes: also called TL1W25 (N207A)
B5: TL1W28 (His-TEV-hTL1A 72-251 E190G) (ligand)
chain: B1 chain with E132G, A151F
notes: also called TL1W28 (E190G)
B6: TL1W43 (His-TEV-TL1A Y188S) (ligand)
chain: B1 chain with Y130S, A151F
notes: also called TL1W43 (Y188S)
B7: TL1W32 (His-TEV-hTL1A 72-251 Y188A) (ligand)
chain: B1 chain with Y130A, A151F
notes: also called TL1W32 (Y188A)
B8: TL1W87 (His-TEV-TL1A G124D) (ligand)
chain: B1 chain with G66D, A151F
notes: also called TL1W87 (G124D)
B9: TL1W40 (His-TEV-TL1A L123S) (ligand)
chain: B1 chain with L65S, A151F
notes: also called TL1W40 (L123S)
B10: TL1W46 (His-TEV-TL1A T239W) (ligand)
chain: B1 chain with A151F, T181W
notes: also called TL1W46 (T239W)
B11: TL1W108 (His-TEV-TL1A S187A) (ligand)
chain: B1 chain with S129A, A151F
notes: also called TL1W108 (S187A)
B12: TL1W33 (His-TEV-hTL1A 72-251 R103A) (ligand)
chain: B1 chain with R45A, A151F
notes: also called TL1W33 (R103A)
B13: TL1W39 (His-TEV-TL1A L123G) (ligand)
chain: B1 chain with L65G, A151F
notes: also called TL1W39 (L123G)
B14: TL1W30 (His-TEV-hTL1A 72-251 N112E) (ligand)
chain: B1 chain with N54E, A151F
notes: also called TL1W30 (N112E)
B15: TL1W37 (His-TEV-TL1A L123E) (ligand)
chain: B1 chain with L65E, A151F
notes: also called TL1W37 (L123E)
B16: TL1W42 (His-TEV-TL1A F114A) (ligand)
chain: B1 chain with F56A, A151F
notes: also called TL1W42 (F114A)
B17: TL1W41 (His-TEV-TL1A E120A) (ligand)
chain: B1 chain with E62A, A151F
notes: also called TL1W41 (E120A)
B18: TL1W130 (His-TEV-TL1A Y238R) (ligand)
chain: B1 chain with A151F, Y180R
notes: also called TL1W130 (Y238R)
B19: TL1W83 (His-TEV-TL1A E120K) (ligand)
chain: B1 chain with E62K, A151F
notes: also called TL1W83 (E120K)
B20: TL1W139 (His-TEV-TL1A E241Q) (ligand)
chain: B1 chain with A151F, E183Q
notes: also called TL1W139 (E241Q)
B21: TL1W133 (His-TEV-TL1A T239F) (ligand)
chain: B1 chain with A151F, T181F
notes: also called TL1W133 (T239F)
B22: TL1W88 (His-TEV-TL1A R156A) (ligand)
chain: B1 chain with R98A, A151F
notes: also called TL1W88 (R156A)
B23: TL1W91 (His-TEV-TL1A R156E) (ligand)
chain: B1 chain with R98E, A151F
notes: also called TL1W91 (R156E)
B24: TL1W128 (His-TEV-TL1A Y238S) (ligand)
chain: B1 chain with A151F, Y180S
notes: also called TL1W128 (Y238S)
B25: TL1W86 (His-TEV-TL1A G124K) (ligand)
chain: B1 chain with G66K, A151F
notes: also called TL1W86 (G124K)
B26: TL1W27 (His-TEV-hTL1A 72-251 T239E) (ligand)
chain: B1 chain with A151F, T181E
notes: also called TL1W27 (T239E)
B27: TL1W33 (E241L) (ligand)
chain: B1 chain with A151F, E183L
notes: no entry of the listing holds E241L; also called E241L variant of His-TL1A
B28: TL1W89 (His-TEV-TL1A R156Y) (ligand)
chain: B1 chain with R98Y, A151F
notes: also called TL1W89 (R156Y)
B29: TL1W134 (His-TEV-TL1A T239K) (ligand)
chain: B1 chain with A151F, T181K
notes: also called TL1W134 (T239K)
B30: TL1W138 (His-TEV-TL1A K240D) (ligand)
chain: B1 chain with A151F, K182D
notes: also called TL1W138 (K240D)
B31: TL1W135 (His-TEV-TL1A K240A) (ligand)
chain: B1 chain with A151F, K182A
notes: also called TL1W135 (K240A)
B32: TL1W101 (His-TEV-TL1A S176N) (ligand)
chain: B1 chain with S118N, A151F
notes: also called TL1W101 (S176N)

Where a chain is given by its changes, count along the chain named. In names and notes the source's numbering stands.

The target of the first assay is T1, Recombinant DR3-Fc (R&D Systems, cat. …). As to the kind of experiment: ELISA, DR3-Fc immobilized. On the procedure:
All ELISA-based measurements were collected in triplicate, and error values report the standard error between measurements. Recombinant DR3-Fc (R&D Systems, cat. #943-D3), dimeric MW˜92 kDa, was non-specifically immobilized onto plates (Nunc maxisorp, cat. #436110) in 100 μL DR3-Fc, diluted to 10 μg/mL onto a 96-well White Maxisorp plate (Nunc, cat #436110) (O/N, 4° C.). Plates were block for 1 hour at room temperature with 250 μl/well of casein buffer and blocking buffer was removed. 50 μL of TL1A variants were diluted in StartingBlock PBS (Thermo Fisher Scientific), at 25 μg/mL, diluting 3× over each well, according to the plate map description for 20160623) per well on a 96-well White Maxisorp plate (Nunc, cat #: 436110) (overnight at 4° C.).
Plates were washed three times with TBST. 100 μl/well polyclonal rabbit anti-human TL1A-biotin antibody (diluted 1:1000 in Starting Block PBS) was added and plates were incubated for 1 hour at room temperature with shaking at 150 rpm. TL1A-biotin antibody was removed and 100 μl/well streptavidin-HRP conjugate (diluted 1:10,000 in Starting Block PBS) was added to plates. Plates were incubated for 1 hour at room temperature with shaking at 150 rpm. Plates were washed three times with TBST. 100 μl/well POD Chemiluminescence substrate (Roche, cat #: 11582950001) was added immediately prior to reading plate luminescence using a Molecular Devices M5 plate reader with a delay setting of 100 ms.
Variants of TL1A were generated and tested for binding to DR3 and DcR3 by ELISA as described.
In the case of B1, the EC50 was determined as 281 nM and the “Rel EC50” value is 10.7 ratio (head: nM).
Regarding B2, the EC50 stood at 710 nM and the “Rel EC50” value was 27.1 ratio (head: nM).
Consider B3, for which the EC50 worked out at 9.5 nM and the “Rel EC50” value was 0.4 ratio (head: nM).
In the same order, the values of B4 are 13.4 nM and 0.5 ratio (head: nM).
For the molecule B5, the EC50 came out at 22.6 nM and the “Rel EC50” value was 0.9 ratio (head: nM).
The like results for B6 were, in that order, 207 nM and 7.9 ratio (head: nM).
In the same order, the values of B7 are 565 nM and 21.6 ratio (head: nM).
Regarding B8, the EC50 amounted to 14.8 nM and the “Rel EC50” value was 0.6 ratio (head: nM).
In the same order, the values of B9 are 30.7 nM and 1.2 ratio (head: nM).
On to B10, for which the EC50 amounted to 284 nM and the “Rel EC50” value was 10.8 ratio (head: nM).
For the molecule B11, the concentration for a half-maximal effect (EC50) came to 39.1 nM and the “Rel EC50” value was 1.5 ratio (head: nM).
With B12, the concentration for a half-maximal effect (EC50) came to 25 nM and the “Rel EC50” value was 1 ratio (head: nM).
In the same order, the values of B13 are 184 nM and 7 ratio (head: nM).
In the same order, the values of B14 are 16.4 nM and 0.6 ratio (head: nM).
In the same order, the values of B15 are 423 nM and 16.1 ratio (head: nM).
Regarding B16, the EC50 turned out to be 77.7 nM and the “Rel EC50” value is 3 ratio (head: nM).
As to B17, the EC50 came to 100 nM and the “Rel EC50” value was 3.8 ratio (head: nM).

In the next assay the target is T2, DcR3. Nature of the assay: ELISA, DcR3.
Regarding B1, the EC50 was 30.7 nM and the “Rel EC50” value was 6.7 ratio (head: nM).
As to B18, the EC50 turned out to be 16.9 nM and the “Rel EC50” value is 3.7 ratio (head: nM).
In the case of B19, the response was half-maximal at 2.2 nM (EC50) and the “Rel EC50” value was 0.5 ratio (head: nM).
As for B20, the midpoint of the response, the EC50, lay at 17.3 nM and the “Rel EC50” value was 3.8 ratio (head: nM).
For the molecule B21, the EC50 was 10.8 nM and the “Rel EC50” value is 2.3 ratio (head: nM).
The like results for B2 were, in that order, 7.6 nM and 1.7 ratio (head: nM).
B22: a half-maximal response (EC50) required 13.5 nM and the “Rel EC50” value was 2.9 ratio (head: nM).
In the case of B23, the EC50 was 8.3 nM and the “Rel EC50” value is 1.8 ratio (head: nM).
In the same order, the values of B3 are 2.5 nM and 0.5 ratio (head: nM).
B4: a half-maximal effect (EC50) was put at 3.7 nM and the “Rel EC50” value was 0.8 ratio (head: nM).
In the same order, the values of B5 are 5.7 nM and 1.2 ratio (head: nM).
The like results for B24 were, in that order, 10.5 nM and 2.3 ratio (head: nM).
With B6, the response was half-maximal at 72.2 nM (EC50) and the “Rel EC50” value was 15.7 ratio (head: nM).
B25: the EC50 worked out at 2.9 nM and the “Rel EC50” value was 0.6 ratio (head: nM).
The like results for B26 were, in that order, 34.3 nM and 7.5 ratio (head: nM).
With B7, the EC50 stood at 7.6 nM and the “Rel EC50” value was 1.7 ratio (head: nM).
The like results for B9 were, in that order, 16.4 nM and 3.6 ratio (head: nM).
Turning to B27, the midpoint of the response, the EC50, lay at 5.7 nM and the “Rel EC50” value is 1.2 ratio (head: nM).
In the case of B12, a half-maximal effect (EC50) was put at 3.3 nM and the “Rel EC50” value was 0.7 ratio (head: nM).
In the case of B28, the response was half-maximal at 8 nM (EC50) and the “Rel EC50” value was 1.7 ratio (head: nM).
Turning to B29, the EC50 came out at 21.5 nM and the “Rel EC50” value was 4.7 ratio (head: nM).
The like results for B30 were, in that order, 59.5 nM and 12.9 ratio (head: nM).
Regarding B13, the EC50 turned out to be 38.2 nM and the “Rel EC50” value was 8.3 ratio (head: nM).
In the same order, the values of B14 are 4.7 nM and 1 ratio (head: nM).
In the same order, the values of B15 are 24.3 nM and 5.3 ratio (head: nM).
With B31, the EC50 was 8.5 nM and the “Rel EC50” value is 1.9 ratio (head: nM).
In the same order, the values of B16 are 11.4 nM and 2.5 ratio (head: nM).
The like results for B17 were, in that order, 32.6 nM and 7.1 ratio (head: nM).
In the same order, the values of B32 are 20.4 nM and 4.4 ratio (head: nM).

A word on the EC50: it is the midpoint of the concentration-response curve.
